Test results from patent publication US20020058323A1, “Monkey urotensin II” (priority 2000, published 2002).

Target: T1, Macaca fascicularis Urotensin II receptor (Macaca mulatta, UniProt Q8HYC3)
T1 construct: expressed in transfected cells
T1 sequence (Q8HYC3 1-389): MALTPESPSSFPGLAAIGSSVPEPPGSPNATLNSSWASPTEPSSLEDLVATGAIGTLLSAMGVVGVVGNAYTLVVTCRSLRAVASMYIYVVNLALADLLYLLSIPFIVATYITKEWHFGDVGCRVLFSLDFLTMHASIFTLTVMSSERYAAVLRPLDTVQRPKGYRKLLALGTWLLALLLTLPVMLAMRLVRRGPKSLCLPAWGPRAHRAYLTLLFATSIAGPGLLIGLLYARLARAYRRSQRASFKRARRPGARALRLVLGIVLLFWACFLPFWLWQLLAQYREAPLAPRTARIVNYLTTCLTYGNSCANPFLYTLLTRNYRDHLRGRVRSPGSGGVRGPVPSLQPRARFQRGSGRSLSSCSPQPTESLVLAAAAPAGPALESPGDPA
Experiment: Radioligand binding with Scatchard plot analysis on a stable HEK 293 cell line transfected with the Urotensin II receptor
Conditions: radiolabeled ligand, single set of binding sites, transfected HEK 293 cells
From the text: 1. A stable cell line was developed from HEK 293 cells transfected with mammalian pCDN vector of the Macaca fascicularis Urotensin II receptor.

Kd: 214 ± 65 pM
B1: Macaca fascicularis Urotensin II: Macaca fascicularis Urotensin II polypeptide of the invention (SEQ ID NO:2, 125 amino acids), ligand of a G-protein coupled receptor (protein)
chain: MYKLASCCLLFIGFLNPLFSLPLLDSGEVSLQLSAPHEDAPLTSEELERASLLQILPEMLLGAERGDSLRKADSSTNIFNPRGNLRKFQDFSGQDPDILLSHLLARIRKPYKKRETPDCFWKYCV
modifications: MACACA FASCICULARIS
